# From article PMC7356358, “Comparative Characterization of Plasmodium falciparum Hsp70-1 Relative to E. coli DnaK Reveals the Functional Specificity of the Parasite Chaperone” (Biomolecules, 2020)
# Several values for one entry are separate records, joined by “and”; a condition that tells them apart may be missing. Equal values may be shown once.
# B1: Plasmodium falciparum Hsp70-1 (natural protein)
# chain: not shown
# notes: Plasmodium falciparum Hsp70-1, cytosolic Hsp70; PlasmoDB PF3D7_0818900; expressed from pQE30/PfHsp70-1; also called PfHsp70-1; PfHsp70
# What was measured:
# [1] = target: B1; test: SPR; conditions: both partners purified
# Escherichia coli DnaK [2] = target: T1, Escherichia coli DnaK (Escherichia coli, UniProt P0A6Y8 1-638); test: SPR; MP-SPR; Hsp70 immobilised, peptide as analyte at 0-2000 nM, 100 µL/min; with 5 mM ADP; conditions: both partners purified
# T1 construct: E. coli Hsp70 (DnaK); expressed from pQE30/DnaK; also called E. coli Hsp70
# [3] = target: the molecule itself; test: SPR; MP-SPR (BioNavis); Hsp70 immobilised on a CMD3D 500L chip, the same Hsp70 as analyte at 0-2000 nM; with 5 mM ATP; self-association, step not told; global fit
# [4] = target: the molecule itself; test: SPR; MP-SPR (BioNavis); Hsp70 immobilised on a CMD3D 500L chip, the same Hsp70 as analyte at 0-2000 nM; no nucleotide; self-association, step not told; global fit
# [5] = target: the molecule itself; test: SPR; MP-SPR (BioNavis); Hsp70 immobilised on a CMD3D 500L chip, the same Hsp70 as analyte at 0-2000 nM; with 5 mM ADP; self-association, step not told; global fit
# Escherichia coli DnaK [6] = target: T1, Escherichia coli DnaK; test: SPR; MP-SPR; Hsp70 immobilised, peptide as analyte at 0-2000 nM, 100 µL/min; with 5 mM ATP (hydrolysable); conditions: both partners purified
# [7] = target: B1; test: SPR; MP-SPR (BioNavis); Hsp70 immobilised (1.0 μg/mL), PfHsp40 as analyte at 0-2000 nM; with 5 mM ADP; global fit; conditions: both partners purified
# Escherichia coli DnaK [8] = target: T1, Escherichia coli DnaK; test: SPR; conditions: both partners purified
# [9] = target: B1; test: SPR; MP-SPR (BioNavis); Hsp70 immobilised (1.0 μg/mL), PfHsp40 as analyte at 0-2000 nM; no nucleotide; global fit; conditions: both partners purified
# [10] = target: B1; test: SPR; MP-SPR (BioNavis); Hsp70 immobilised (1.0 μg/mL), PfHsp40 as analyte at 0-2000 nM; with 5 mM ATP; global fit; conditions: both partners purified
binder,measurement,setting,value
ALLLMYRR (canonical model Hsp70 peptide substrate; source: synthetic peptide) [peptide ALLLMYRR],binding result,[1],binds
same,binding result,Escherichia coli DnaK [2],binds
B1,Kd,[3],528 nM
same,kon,[3],21400 M⁻¹ s⁻¹
same,Kd,[4],2390 nM
same,kon,[4],8510 M⁻¹ s⁻¹
same,Kd,[5],1710 nM
same,kon,[5],100 M⁻¹ s⁻¹
NRNNTG (NRLLTG with the middle residues substituted by asparagine; source: synthetic peptide) [peptide NRNNTG],binding result,[1],binds
same,binding result,Escherichia coli DnaK [2],binds
GFRVVLMYRF (canonical model Hsp70 peptide substrate; source: synthetic peptide) [peptide GFRVVLMYRF],binding result,[1],binds
same,binding result,Escherichia coli DnaK [6],binds
NRLLTG (canonical model Hsp70 peptide substrate; source: synthetic peptide) [peptide NRLLTG],binding result,[1],binds
same,binding result,Escherichia coli DnaK [2],binds
"Plasmodium falciparum Hsp40 (natural protein, UniProt Q8IL88 1-424, looked up, P. falciparum type I Hsp40, cytosolic co-chaperone of PfHsp70-1; PlasmoDB PF3D7_1437900; codon harmonized gene cloned into pQE30 (BamHI, HindIII); also called PfHsp40) MFFSSGFPFDSMGGQQARRKREVNNNKFYEVLNLKKNCTTDEVKKAYRKLAIIHHPDKGGDPEKFKEISRAYEVLSDEEKRKLYDEYGEEGLENGEQPADATDLFDFILNAGKGKKKRGEDIVSEVKVTLEQLYNGATKKLAISKDIICTNCEGHGGPKDAKVDCKQCNGRGTKTYMRYHSSVLHQTEVTCNTCRGKGKIFNEKDKCANCKGMCVLKTRKIIEVYIPKGAPNKHKIVFNGEADEKPNVITGNLVVILNEKQHPVFRREGIDLFMNYKISLYESLTGFVAEVTHLDERKILVNCTNSGFIRHGDIREVLDEGMPTYKDPFKKGNLYITFEVEYPMDLIITNENKEVLKILKKQNEVEKKYDLENSELEVVSCSPVDKEYIKVRVTKQQQQQQQEAYDDEDHQPEMEGGRVACAQQ",Kd,[7],9980 nM
same,kon,[7],1530 M⁻¹ s⁻¹
same,kon,Escherichia coli DnaK [8],122 M⁻¹ s⁻¹ and 116 M⁻¹ s⁻¹ and 112 M⁻¹ s⁻¹
same,Kd,[9],18800 nM
same,kon,[9],1330 M⁻¹ s⁻¹
same,Kd,[10],208 nM
same,kon,[10],181 M⁻¹ s⁻¹
GFRNNNMYRF (source: synthetic peptide) [peptide GFRNNNMYRF],binding result,[1],binds
same,binding result,Escherichia coli DnaK [6],binds
ANNNMYRR (source: synthetic peptide) [peptide ANNNMYRR],binding result,[1],binds
same,binding result,Escherichia coli DnaK [6],binds
